Source: patent publication US20080093219A1

Target: T4 tail-fiber protein P37 SΔ1ras2 (gene 37 SΔ1 deletion with the H-ras mAb epitope inserted at the junction), on SΔ1ras2 phage (bacteriophage T4; bacteriophage T4 with human H-ras insert) (UniProt P03744)
Experiment: cell-based or functional assay

With rat monoclonal IgG antibody Y13-259 the phage inactivated after mAb and anti-rat IgG serum was 85%, the phage inactivated, control treatment (mAb with buffer only) was 99.8% and the phage inactivation, time course of mAb treatment was 99.9%.
